Test: yeast display, Sf9 membrane polyspecificity reagent, FACS + sequencing; frameworks hold sequencing errors
Outline: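 In a synthetic yeast display library (Saccharomyces cerevisiae BJ5465), nanobody expression was induced with galactose for 36–48 hours. FACS gates were set low and high (top ~1%) using anti-HA fluorescence for expression and streptavidin fluorescence for binding of the Sf9 membrane reagent. Each polyreactivity label is drawn from the gate of origin.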

| Sequence | polyreactivity (PSR sort gate) |
| --- | --- |
| QVQLVESGGGLVQAGGSLRLSCAASGSIFAHNAMGWSRQAPGKESEMVAAISSGGSTNYADSVKGRFTISRDNAKNTVYLQMNSLKPEDTAVDYCAKSIDGWYWRRRRYDYWGQGTQVTVSS | low polyreactivity |
| QVQLVESGGGLVQAGGSLRLSCAASGSIFAHYTMGWYRQAPGKERELVASISYRATRTHYADSVKGRFTISRDNAKNTVYLQMNSLKPEDTAVYYCNKGGYPGLQWGNYPPYRSKDDYWGQGTQVTVSS | high polyreactivity |
| QVQLVESGGGLVQAGGSLRLSCAASGSIFAIYAMGWYRQAPGKERELVAAISYGDGSTYYADSVKGRFTISRDNAKNTVYLQMNSLKPEDTAVYYCAVGTRVKYDYWGQGTQVTVSS | high polyreactivity |
| QVQLVESGGGLVQAGGSLRLSCAASGSIFAKYAMGWYRQAPGKDREFVAAIRASGGRTYYADSVKGRFTISRDTAKNTVYLQMNSLKPEDSAVYYCNARKYLIPKMDYWGQGTQVTVSS | high polyreactivity |
| QVQLVESGGGLVQAGGSLRLSCAASGSIFAKYAMGWYRQAPGKEREFVAAIRASGGRTYYADSVKGRFTISRDNAKNTVYLKMNSLKPEDTAFYYCASDVSYRAGFDYWGQGTQVTVSS | high polyreactivity |
| QVQLVESGGGLVQAGGSLRLSCAASGSIFAPNAMGWYRQAPGKERELVAAITYGGGRTYYADSVKGRFTISRDNAKNTVYLQMNSLNPEDTAVYYCNALFSVRGYTWRSAAQDMDYWGQGTQVTVSS | high polyreactivity |
| QVQLVESGGGLVQAGGSLRLSCAASGSIFAPYAMGWYRQAPGKEREFVATITWGGGRTYYADSVKGRFTISRDNAKNTVYLQMNSLKPEDTAVYYCAAAIYYGSLGLFDYWGQGTQVTVSS | high polyreactivity |
| QVQLVESGGGLVQAGGSLRLSCAASGSIFAPYAMGWYRQAPGKERELVAAISWSGDSTYYADSVKGRFTISRDNAKNTVYLQMNSLKPEDTAVSYCAAAGGFDYDYWGQATQVTVSS | low polyreactivity |
| QVQLVESGGGLVQAGGSLRLSCAASGSIFAQYAMGWYRQAPGKERELVAAISRTGGGTYYADSVKGRFTISRDNAKNTVYLQMNSLKPEDTAVYYCAAVPGLFYLPYDYWGQGTQVTVSS | low polyreactivity |
| QVQLVESGGGLVQAGGSLRLSCAASGSIFAQYAMGWYRQAPGKERELVAAITRGGGNTYYADTVKGRFTISRDNAKNTVYLQMNSLKPEDTAVYYCAANRRDGYVYWGQGTQVTVSS | low polyreactivity |
| QVQLVESGGGLVQAGGSLRLSCAASGSIFARYALGWYRQAPGKERELVDAITRSGVSTYSADSVKGRFTISRDNAKNTVYLQMNSLKPEDTAVYYCNADYPIRSSPYGYYYWGQGTQVTVSS | high polyreactivity |
| QVQLVESGGGLVQAGGSLRLSCAASGSIFASNTMGWSRQATGKERELVAGITKIGSSTYYADSVKGRFTISRDNAKNTVYLQMNSLKPEDTEVYYCNAYGPNIYSSRYDYWGQGTQVTVSS | low polyreactivity |
| QVQLVESGGGLVQAGGSLRLSCAASGSIFASYAMGWYRQAPGKERELVAAISDGGGRTYYADSVKGRFTISRDNAKNTVYLQMNSLKPEDTAVYYCAAYAVYTYRRARGYWGQGTQVTVSS | high polyreactivity |
| QVQLVESGGGLVQAGGSLRLSCAASGSIFASYAMGWYRQAPGKERELVAAISQNGSRTYYAVSVKGRFTISRDNAKYTVYLQMNSLKPEDTAVYYCAVLSRQYFRYGYDYWGQGTQVTVSS | high polyreactivity |
| QVQLVESGGGLVQAGGSLRLSCAASGSIFASYAMGWYRQAPGKERELVAAISRSGTSTRYADSVKGRFTISRDNAKNTVYLQMNSLKPEDTAVYYCAARWYVFFRKYDYWGQGTQVTVSS | high polyreactivity |
| QVQLVESGGGLVQAGGSLRLSCAASGSIFATYAMGWYIQAPGKERELVASITTDGSTHYADSVKGRFTISRDNAKNTVYLQMNSLKPEDTAVYYCNTETGPSPVPVYDTEFDSWGQGTQVTVSS | low polyreactivity |

| Sequence | polyreactivity (PSR sort gate) |
| --- | --- |
| QVQLVESGGGLVQAGGSLRLSCAASGSIFAVNAMGLYRQAPGKERELVATITGRDGSTYYADSVKGRFTISRDNAKNTVYLQMNRLKPEDTAVYYCTARRKRTYDYWGQGTQVTVSS | high polyreactivity |
| QVQLVESGGGLVQAGGSLRLSCAASGSIFAWYAMGRYRQAPGKEMELVAAIRYRGDGTYYADSVKGRFTISRDNAKNTVYLQMNSLKPEDTAVYYCAADSRVYRGGYIYRYGYWGQGTQVTVSS | low polyreactivity |
| QVQLVESGGGLVQAGGSLRLSCAASGSIFAYNAMGWYRQAPGKERELVAAITGSGGSTDYADSVKGRFTISRDNAKNTVYLQMNSLKPEDTAVYYCNADWWSEWKLYDYWGQGTQVTVSS | low polyreactivity |
| QVQLVESGGGLVQAGGSLRLSCAASGSIFAYNAMGWYRQAPGKERELVAGISSRGGRTYYADSVKGRFTISRDNAKNTVYLQKNSLKPEDTAVYNCNKRSVPGTYYPTPVRYKYDYWGQGTQVTVSS | high polyreactivity |
| QVQLVESGGGLVQAGGSLRLSCAASGSIFAYYAMGWYRQAPGKERDLVAAISYSGDGTYYADSVKGRFTISRDNAKNTVYLQMNSLKREDTAVYYCATQIYPLDFYQGDWNDYWGQGTQVTVSS | low polyreactivity |
| QVQLVESGGGLVQAGGSLRLSCAASGSIFAYYAMGWYRQAPGKERELVAGIRISGGRTYYADSVKGRFTISRDTAKNTVYLQMNSLKPEDTAVYYCNARWRGFRTGAGDYWGQGTQVTVSS | high polyreactivity |
| QVQLVESGGGLVQAGGSLRLSCAASGSIFAYYVMGWYRPAPGKERELVAAITRAGSTYYADSVKGRFTISRDNGKNTVYLQMNSLKPEVSAVYYCDARVGYYFRPESYYWGQGTKVTVSS | high polyreactivity |
| QVQLVESGGGLVQAGGSLRLSCAASGSIFCVYAMGWYRQAPGKERELVAAISQSGGRTYYADSVKGRFTISRDNAKNTVYLQMNSLKPEDTAVYYCAAVVFNVYRRYWGQGTQVTVSS | high polyreactivity |
| QVQLVESGGGLVQAGGSLRLSCAASGSIFCYALGWNRQAPGKKRELVAAITGRCTSTYADSVKGRFTISLDNAKNTVYLQTNSLKPEDTAVYYCGPVGWFAEFLFSDIYGYYWGQGTQVTVSS | low polyreactivity |
| QVQLVESGGGLVQAGGSLRLSCAASGSIFDAYAMGWYRQAPGKERELVAAITTGGGSTYYADSVMGRFTISRDNAKNTVYLQMNSLKPEDTAVYYCARDYGKYKGYYWGQGTQVTVSS | low polyreactivity |
| QVQLVESGGGLVQAGGSLRLSCAASGSIFDDYAMGWYRQAPGKERELVAAISSSGTSTYYADSVKGRFTISRDNAKNTVYLQMNSLKQEDTAVYYCAARSAILKSGYLMDYWGQGTQVTVSS | low polyreactivity |
| QVQLVESGGGLVQAGGSLRLSCAASGSIFDDYAMGWYRQAPGKERELVAAISWSGGRTYYADSVKGRFTISRDNAKNTVYLQMNSLKPEDTAVYYCAATTGVRSRRYYYWGQGTQVTVSS | low polyreactivity |
| QVQLVESGGGLVQAGGSLRLSCAASGSIFDFNAMGWYRQAPGKERELVATIRYSGGSTYYADSVKGRFTISRDNAKNTVYLQMNSLKPEDTAVYYCIFRSPSYEYDYWGQGTQVTVSS | low polyreactivity |
| QVQLVESGGGLVQAGGSLRLSCAASGSIFDFNTMGWYIQAPGKERELVAAISQRTGRTYYADSVKGRFTISRDKAKNTVYLQMNSLKPEDTAVYYCAKVAVAGRGSGNYINHRFEYWGQGTQVTVSS | high polyreactivity |
| QVQLVESGGGLVQAGGSLRLSCAASGSIFDGYAMGWYRQAPGTERELVAGISGRGTRTYYADSVKGRFTISRDYAMNTVYLQMNSLKPEDTAVYYCNKAGYFHRLKYYYWGQGTQVTVSS | high polyreactivity |

From the nanobody polyreactivity screen of Harvey et al. (2022)
